Assay results: paper PMC4367279, “Comparisons with Amyloid-β Reveal an Aspartate Residue That Stabilizes Fibrils of the Aortic Amyloid Peptide Medin*” (The Journal of Biological Chemistry, 2015)

Biological target: medin D25N, recombinant (human)
Test: thioflavin T fluorescence (aggregation kinetics); 20 uM medin, 20 uM ThT, 30 C, no agitation, 96-well plate, triplicate; 20 mM sodium phosphate, 150 mM NaCl, pH 7.4; sigmoidal fit, slope 1/tau is the rate of polymerization; self-assembly into ThT-responsive aggregates

- rate of polymerization (ThT fit): 1.43 h⁻¹
Substance: medin D25N, recombinant (peptide)
